Reference: article PMC12881460, “Biophysical characterization of Eag chaperones suggests the mechanism of effector transmembrane domain release” (Nature Communications, 2026)
Substitutions are numbered along the chain they refer to. Names may count otherwise.

B1: EagT6 I24F (natural protein)
chain: MTLYRLHEADLEIPDAWQDQSINFFKLPASGPAREASFVISRDASQGDAPFADYVARQLENAEKQLPGFKLHKRWDINIHGHAAVLLDYQWQREGRDLMLRQVFIERRPAVLITTLTTTPADLPHHEPAWKQAMQTLVPRPTPS
B2: EagT6 L66A (natural protein)
chain: B1 chain with F24I, L66A
notes: also called EagT6-TMD L66A (in complex)
B3: EagT6 S41A (natural protein)
chain: B1 chain with F24I, S41A
B4: Tse6(1–61) (domain or fragment)
chain: MDAQAAARLGDEIAHGFGVAAMVAGAVAGALIGAAVVAATAATGGLAAVILAGSIAAGGLS
notes: not shown: His6, C-terminal, kept
B5: EagT6 Q102A (natural protein)
chain: B1 chain with F24I, Q102A
B6: EagT6 Q58A (natural protein)
chain: B1 chain with F24I, Q58A
notes: also called EagT6-TMD Q58A (in complex)

Columns and labels:
[1] = molecular target: Tse6(1–61) (Pseudomonas aeruginosa) (UniProt Q9I739); experiment: GdmCl denaturation followed by steady-state tryptophan fluorescence (unfolding free energy of the co-purified complex against the apo chaperone); 1 μM protein dimer, 25 mM Tris pH 7.0, GdmCl series, room temperature, 1 h equilibration; KTMD calculated by Eq. (7) from ΔG° of unfolding extrapolated to 0 M denaturant
[2] = molecular target: SciW (Salmonella Typhimurium); experiment: dynamic light scattering; 50 mM Tris pH 8.0, 250 mM NaCl, 1 mM BME, 25 °C, 0.5 mg/ml protein
[3] = molecular target: Rhs1(1–59) (Salmonella Typhimurium); experiment: stopped-flow fluorescence unfolding kinetics; co-purified complex or apo chaperone, 10 μM diluted 1/10 into GdmCl in 50 mM Tris, 250 mM NaCl, 1 mM BME, 20 °C; rate extrapolated to 0 M GdmCl
[4] = molecular target: SciW I25F (Salmonella Typhimurium); experiment: dynamic light scattering; 50 mM Tris pH 8.0, 250 mM NaCl, 1 mM BME, 25 °C, 0.5 mg/ml protein
[5] = molecular target: SciW Q58A (Salmonella Typhimurium); experiment: as above
[6] = molecular target: SciW Q106A (Salmonella Typhimurium); experiment: as above
[7] = molecular target: SciW S41A (Salmonella Typhimurium); experiment: as above
[8] = molecular target: the molecule itself; experiment: as above
EagT6 Q58A = molecular target: B6; experiment: GdmCl denaturation followed by steady-state tryptophan fluorescence (unfolding free energy of the co-purified complex against the apo chaperone); 1 μM protein dimer, 25 mM Tris pH 7.0, GdmCl series, room temperature, 1 h equilibration; KTMD calculated by Eq. (7) from ΔG° of unfolding extrapolated to 0 M denaturant; settings: both partners purified

Molecule: EagT6 L66A (from UniProt Q9I738) (natural protein)
- Ka [1]: < 1e+06 M⁻¹

Molecule: SciW (natural protein)
- stoichiometry N [2]: 2
- lifetime of the complex [3]: 15 h

Molecule: SciW I25F (natural protein)
- stoichiometry N [4]: 2

Molecule: SciW L66A (natural protein)
- lifetime of the complex [3]: 2 h

Molecule: SciW Q58A (natural protein)
- stoichiometry N [5]: 2
- lifetime of the complex [3]: 0.267 h

Molecule: SciW Q106A (natural protein)
- stoichiometry N [6]: 2

Molecule: SciW S41A (natural protein)
- stoichiometry N [7]: 2

Molecule: B1
- stoichiometry N [8]: 2

Molecule: B2
- stoichiometry N [8]: 2

Molecule: B3
- stoichiometry N [8]: 2

Molecule: B4
- Kd (EagT6 Q58A): ~0.03 nM

Molecule: B5
- stoichiometry N [8]: 2

Molecule: B6
- stoichiometry N [8]: 2
